Laboratory results: publication PMC5015959, “The Binding of Plasmodium falciparum Adhesins and Erythrocyte Invasion Proteins to Aldolase Is Enhanced by Phosphorylation” (PLoS ONE, 2016)
Where a SMILES comes first, the peptide text is derived from it. Where no end group is shown, it is not given here. [ ]: non-standard residue; d: D form. The star is where a group is joined. Biotin = O=C1N[C@H]2[C@H](CS[C@H]2CCCCC(=O)*)N1; pT = C[C@@H](OP(=O)(O)O)[C@H](N)C(=O)O; pS = N[C@@H](COP(=O)(O)O)C(=O)O

T1: P. falciparum aldolase (P. falciparum, UniProt Q7KQL9 1-369)
T1 construct: also called fructose 1,6-bisphosphate aldolase; parasite aldolase; source: prepared as described previously [42]
T1 sequence (looked up): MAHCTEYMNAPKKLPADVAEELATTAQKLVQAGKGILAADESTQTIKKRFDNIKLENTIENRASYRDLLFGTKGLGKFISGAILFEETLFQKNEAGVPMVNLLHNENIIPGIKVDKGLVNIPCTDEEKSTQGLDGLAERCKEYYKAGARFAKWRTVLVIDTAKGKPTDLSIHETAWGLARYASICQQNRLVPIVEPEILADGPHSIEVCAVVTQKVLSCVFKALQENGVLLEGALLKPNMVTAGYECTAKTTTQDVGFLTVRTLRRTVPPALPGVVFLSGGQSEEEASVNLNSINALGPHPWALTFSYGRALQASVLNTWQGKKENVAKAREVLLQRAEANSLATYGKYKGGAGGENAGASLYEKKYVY

B1: unlabelled competitor MTRAP CTD peptide (peptide)
peptide: YFLRKEKTEKVVQEETKEENFEVMFNDDALKGKDNKAMDEEEFWALE
B2: EBA175 CTD (1445–1502) (peptide)
peptide: Biotin-KYQSSEGVMNENNENNFLFEVTDNLDKLSNMFNQQVQETNINDFSEYHEDINDINFKK
notes: also called EBA175 unmodified; source: synthetic peptide; bought: Biomatik, USA
B3: EBA181 CTD (1511–1567) (peptide)
peptide: Biotin-RKNLDDEKGFYDSNLNDSAFEYNNNKYNKLPYMFDQQINVVNSDLYSEGIYDDTTTF
notes: also called EBA181 unmodified; source: synthetic peptide; bought: Biomatik, USA
B4: MTRAP CTD phosphorylated at Thr-467 (peptide)
peptide: Biotin-YFLRKEKTEKVVQEE[pT]KEENFEVMFNDDALKGKDNKAMDEEEFWALE
notes: source: phosphorylated synthetic peptide (Biomatik) or peptide phosphorylated in vitro
B5: RH4 CTD phosphorylated at S1667 or S1674 (peptide)
peptide: Biotin-KNSNEPHHIFNIFQKEFSEADNAHSEEKEEYLPVYFDEVEDEVEDEVEDEDENENEVENENEDFNDI
modifications: also: one phosphate at either Ser1667 (pos 18) or Ser1674 (pos 25)
notes: as for B4
B6: MTRAP CTD phosphorylated at Thr-459 and Thr-467 (peptide)
peptide: Biotin-YFLRKEK[pT]EKVVQEE[pT]KEENFEVMFNDDALKGKDNKAMDEEEFWALE
notes: as for B4
B7: AMA1 full length CTD (567–622) (peptide)
peptide: Biotin-YKRKGNAEKYDKMDEPQDYGKSNSRNDEMLDPEASFWGEEKRASHTTPVLMEKPYY
notes: source: synthetic peptide; bought: Biomatik, USA
B8: RH4 CTD (1650–1716) (peptide)
peptide: Biotin-KNSNEPHHIFNIFQKEFSEADNAHSEEKEEYLPVYFDEVEDEVEDEVEDEDENENEVENENEDFNDI
notes: also called RH4 unmodified; source: synthetic peptide; bought: Biomatik, USA
B9: RH2B CTD (3211–3254) (peptide)
peptide: Biotin-DRSNKDECDFDMCEEVNNNDHLSNYADKEEIIEIVFDENEEKYF
modifications: cysteine pairing not given here
notes: also called RH2B unmodified; source: synthetic peptide; bought: Biomatik, USA
B10: MTRAP CTD short C-terminal peptide (printed residues 479–498) (peptide)
peptide: Biotin-ALKGKDNKAMDEEEFWALE
notes: as for B7
B11: EBA181 CTD phosphorylated at S1523 and S1528 (peptide)
peptide: Biotin-RKNLDDEKGFYD[pS]NLND[pS]AFEYNNNKYNKLPYMFDQQINVVNSDLYSEGIYDDTTTF
notes: as for B4
B12: TRAP full length CTD (530–574) (peptide)
peptide: Biotin-YKFVVPGAATPYAGEPAPFDETLGEEDKDLDEPEQFRLPEENEWN
notes: as for B7
B13: EBA175 CTD phosphorylated at T1483 and S1489 (peptide)
peptide: Biotin-KYQSSEGVMNENNENNFLFEVTDNLDKLSNMFNQQVQE[pT]NINDF[pS]EYHEDINDINFKK
notes: as for B4
B14: EBA140 CTD (1155–1210) (peptide)
peptide: Biotin-RMGKSNEEYDIGESNIEATFEENNYLNKLSRIFNQEVQETNISDYSEYNYNEKNMY
notes: also called EBA140 unmodified; source: synthetic peptide; bought: Biomatik, USA
B15: MTRAP full length CTD (452–498), synthetic biotinylated peptide (peptide)
peptide: Biotin-YFLRKEKTEKVVQEETKEENFEVMFNDDALKGKDNKAMDEEEFWALE
notes: as for B7
B16: RH2B CTD phosphorylated at S3233 (peptide)
peptide: Biotin-DRSNKDECDFDMCEEVNNNDHL[pS]NYADKEEIIEIVFDENEEKYF
modifications: cysteine pairing not given here
notes: as for B4
B17: AMA1 CTD phosphorylated at Ser-610 (peptide)
peptide: Biotin-YKRKGNAEKYDKMDEPQDYGKSNSRNDEMLDPEASFWGEEKRASHTTPVLMEKPYY
modifications: not fully specified (residue 44)
notes: as for B4
B18: MTRAP CTD phosphorylated at Thr-459 (peptide)
peptide: Biotin-YFLRKEK[pT]EKVVQEETKEENFEVMFNDDALKGKDNKAMDEEEFWALE
notes: as for B4
B19: EBA140 CTD, phosphorylated (peptide)
peptide: Biotin-RMGKSNEEYDIGESNIEATFEENNYLNKLSRIFNQEVQETNISDYSEYNYNEKNMY
modifications: also: phosphorylated, exact sites not determined
notes: also called EBA140 phosphorylated; source: phosphorylated synthetic peptide (Biomatik) or peptide phosphorylated in vitro

Experiments:
P. falciparum aldolase [1] = molecular target: T2, P. falciparum aldolase (Plasmodium falciparum, UniProt Q7KQL9); test: biochemical; type: binding; settings: for binding to aldolase (in words): biolayer interferometry, Octet Red; for Kd: same assay as the Kd column, symbol * = no binding
T2 construct: made in house
Source text: CTDs of four classes of type 1 membrane protein (AMA1 and the TRAP, EBL and RH families) that are potential adhesins or host cell invasion proteins derived from apical organelles, and present in the merozoite plasma membrane during invasion, were examined for their ability to bind to aldolase using bio-layer interferometry. Streptavidin-coated biosensors were loaded with biotinylated synthetic peptides or recombinant proteins representing either the full length CTDs or shorter C-terminal sequences (Table 1) and titrated with increasing aldolase concentrations. This analysis enabled the calculation of a dissociation constant (Kd) for each pair of proteins as a measure of the strength of interaction between them.
The effect of the CTD phosphorylation on aldolase binding was investigated using biolayer interferometry using phosphorylated synthetic peptides or peptides phosphorylated in vitro (Table 3).
Protein interactions were analysed by biolayer interferometry using the Octet Red system (ForteBio) at 25°C in 96-well microplates, as described previously. All assays were performed in 100 mM Tris-HCl pH 8.0, according to the manufacturer’s instructions. A baseline was established over 1 min, and biotinylated samples were loaded onto streptavidin sensors for 1 min. The sensors were washed for 1 min and then incubated with aldolase at different concentrations (0.05–250 μM) for 1 min, followed by a dissociation phase over 5 min. The experiments were performed in duplicate or triplicate depending on the experiment. The data were analysed as described previously.

[2] = molecular target: RH1 CTD phosphorylated at S2950 or T2951 (P. falciparum); test: BLI
[3] = molecular target: RH1 full length CTD (2921–2971) (P. falciparum); test: BLI
P. falciparum aldolase [4] = molecular target: T1, P. falciparum aldolase; test: BLI; competition: biotinylated AMA1 or RH4 CTD on streptavidin sensor, fixed aldolase (70 μM for AMA1, 20 μM for RH4) with increasing unlabelled MTRAP CTD peptide; Octet Red; duplicate; settings: both partners purified
P. falciparum aldolase [5] = molecular target: T1, P. falciparum aldolase; test: BLI; settings: both partners purified
P. falciparum aldolase [6] = molecular target: T1, P. falciparum aldolase; test: BLI; settings: both partners purified; remark: listed apart in the source

Row | Molecule | Kd (P. falciparum aldolase [5]) [µM] | Kd (P. falciparum aldolase [6]) [µM] | other results
1 | Biotin-KTNSGDNNSNEINEAFEPNDDVLFKEKDEIIEITFNDNDSTI [RH2A] | – | – | binding to aldolase (in words) (P. falciparum aldolase [1]): did not bind at all; Kd (P. falciparum aldolase [1]): > 250 µM
2 | Biotin-DRSNKDECDFDMCEEVNNNDHLSNYADKEEIIEIVFDENEEKYF (cysteines drawn unpaired) [RH2B] | – | – | increase in affinity for aldolase following phosphorylation (P. falciparum aldolase [1]; phosphorylated versus unmodified CTD, from Kd values of Table 3): 11 fold
3 | CSCC[C@H](NC(=O)[C@H](CC(C)C)NC(=O)[C@@H](NC(=O)CCCC[C@@H]1SC[C@@H]2NC(=O)N[C@@H]21)C(C)C)C(=O)N[C@@H](CCC(=O)O)C(=O)N[C@@H](CCCCN)C(=O)N1CCC[C@H]1C(=O)N[C@@H](Cc1ccc(O)cc1)C(=O)N[C@@H](Cc1ccc(O)cc1)C(=O)O [AMA1 555–562] (Biotin-VLMEKPYY-OH; C-terminus assumed) | – | – | binding to aldolase (in words) (P. falciparum aldolase [1]): did not bind; Kd (P. falciparum aldolase [1]): > 250 µM
4 | P. falciparum aldolase (from UniProt Q7KQL9 1-369) (enzyme) | – | – | Kd [2]: 2.5 µM; Kd [3]: 6.1 µM
5 | CC[C@H](C)[C@H](NC(=O)[C@H](Cc1c[nH]cn1)NC(=O)[C@H](Cc1ccc(O)cc1)NC(=O)CCCC[C@@H]1SC[C@@H]2NC(=O)N[C@@H]21)C(=O)N[C@@H](Cc1ccccc1)C(=O)N[C@@H](Cc1ccc(O)cc1)C(=O)N[C@@H](CCCCN)C(=O)N[C@@H](CCCNC(=N)N)C(=O)N[C@@H](CCCCN)C(=O)NCC(=O)N[C@@H](C)C(=O)N[C@@H](CCC(=O)O)C(=O)N[C@@H](CCCCN)C(=O)N[C@@H](CCC(=O)O)C(=O)N[C@@H](CC(C)C)C(=O)N[C@@H](Cc1ccc(O)cc1)C(=O)N[C@@H](CCC(=O)O)C(=O)N[C@@H](CC(N)=O)C(=O)N[C@H](C(=O)N[C@@H](C)C(=O)NCC(=O)N[C@@H](CCCNC(=N)N)C(=O)N[C@@H](Cc1ccc(O)cc1)C(=O)N[C@@H](CCSC)C(=O)N[C@@H](Cc1ccc(O)cc1)C(=O)N[C@@H](CC(=O)O)C(=O)O)C(C)C [PTRAMP, reference compound] (Biotin-YHIFYKRKGAEKELYENVAGRYMYD-OH; C-terminus assumed) | – | – | binding to aldolase (in words) (P. falciparum aldolase [1]): does not bind
6 | B1 | – | – | percent reduction of aldolase binding to RH4 CTD at a 5-fold molar excess of MTRAP to aldolase (P. falciparum aldolase [4]): 56%
7 | B2 | 96 | – | –
8 | B3 | 130 | – | –
9 | B4 | – | 1.9 | –
10 | B5 | – | 2.5 | –
11 | B6 | – | 0.9 | –
12 | B7 | 53 | – | –
13 | B8 | 3.5 | – | –
14 | B9 | 125 | – | –
15 | B10 | 17 | – | –
16 | B11 | – | 4.7 | –
17 | B12 | 5 | – | –
18 | B13 | – | 38 | –
19 | B14 | 83 | – | –
20 | B15 | 13.8 | – | –
21 | B16 | – | 11 | –
22 | B17 | – | 44 | –
23 | B18 | – | 3.5 | –
24 | B19 | – | 35 | –
